This experiment has as its target T1, artificial transmembrane protein with eYFP (enhanced yellow fluorescent protein) as the receptor structure (Aequorea victoria (Water jellyfish) …, UniProt P42212 2-238 = GFP).
T1 construct: Control construct in living cells; not shown: Three are signal peptide-SNAPf-PdgfrTM-Li
The experiment in a line: label-free diffraction signal (focal molography) from living cells on a nanopatterned waveguide after injection of the peptide.

Ends that are not written are not given here.

B1: Grb2-targeting peptide (peptide)
peptide: KKWKMRRNPFWIKIQRCCGIRVVDNSPPPPLPPRRRRSAPSPTRV-NH2
modifications: cysteine pairing not given here
notes: The hyphen between the two Cys may mean two peptides joined by a disulfide; also called P6; protein specifically targeting Grb2
B1: the binding result is reported as “no binding”.

The values above are taken from patent publication US20240083974A1 (ETH Z RICH, published 2024).
